From PMC6723713, “Purification, Characterization and Evaluation of Inhibitory Mechanism of ACE Inhibitory Peptides from Pearl Oyster (Pinctada fucata martensii) Meat Protein Hydrolysate” (Marine Drugs, 2019)
Where two headings read alike, the source gives them in different places. Values belong to the molecule of their own block, whether it stands above or below them.

How the values were obtained:
[1] = biological target: T1, Angiotensin I converting enzyme (UniProt P12822)
T1 sequence: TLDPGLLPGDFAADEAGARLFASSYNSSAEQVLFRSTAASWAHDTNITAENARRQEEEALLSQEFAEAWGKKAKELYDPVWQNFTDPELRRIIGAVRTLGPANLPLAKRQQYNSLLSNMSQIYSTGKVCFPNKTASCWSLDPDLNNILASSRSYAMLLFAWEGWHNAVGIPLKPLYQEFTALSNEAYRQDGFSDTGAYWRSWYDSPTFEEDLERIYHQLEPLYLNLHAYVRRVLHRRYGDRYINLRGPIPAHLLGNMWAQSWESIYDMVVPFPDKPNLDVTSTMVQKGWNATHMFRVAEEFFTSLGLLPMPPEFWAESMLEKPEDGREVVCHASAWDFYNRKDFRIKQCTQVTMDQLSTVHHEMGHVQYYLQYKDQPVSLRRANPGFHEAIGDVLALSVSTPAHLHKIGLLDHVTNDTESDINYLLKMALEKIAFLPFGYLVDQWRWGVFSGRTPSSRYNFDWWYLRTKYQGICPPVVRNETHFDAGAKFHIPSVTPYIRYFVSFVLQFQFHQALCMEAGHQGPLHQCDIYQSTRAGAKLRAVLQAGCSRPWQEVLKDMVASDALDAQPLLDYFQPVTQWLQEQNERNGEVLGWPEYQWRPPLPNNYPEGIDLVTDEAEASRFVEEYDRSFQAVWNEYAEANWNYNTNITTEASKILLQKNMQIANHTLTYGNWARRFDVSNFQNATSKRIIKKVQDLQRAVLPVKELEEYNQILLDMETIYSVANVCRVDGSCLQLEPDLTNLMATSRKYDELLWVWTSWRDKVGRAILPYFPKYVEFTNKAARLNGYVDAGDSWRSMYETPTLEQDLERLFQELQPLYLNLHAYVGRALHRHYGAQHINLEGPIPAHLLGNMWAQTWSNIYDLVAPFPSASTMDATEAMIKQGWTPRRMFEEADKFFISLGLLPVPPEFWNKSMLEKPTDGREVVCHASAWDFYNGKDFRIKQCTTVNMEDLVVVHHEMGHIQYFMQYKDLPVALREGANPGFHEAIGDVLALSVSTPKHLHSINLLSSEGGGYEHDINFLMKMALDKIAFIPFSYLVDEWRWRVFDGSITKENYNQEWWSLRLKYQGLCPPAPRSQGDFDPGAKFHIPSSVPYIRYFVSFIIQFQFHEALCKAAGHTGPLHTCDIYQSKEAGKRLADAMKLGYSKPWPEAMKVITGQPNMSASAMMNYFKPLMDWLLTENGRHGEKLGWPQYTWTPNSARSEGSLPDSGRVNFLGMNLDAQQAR

[2] = biological target: T1, Angiotensin I converting enzyme; remark: listed apart in the source
ACE = biological target: T2, ACE (Oryctolagus cuniculus, UniProt P12822); conditions: cited from earlier work
T2 construct: purchased Sigma-Aldrich (Shanghai, China)
T2 sequence (P12822 34-1310): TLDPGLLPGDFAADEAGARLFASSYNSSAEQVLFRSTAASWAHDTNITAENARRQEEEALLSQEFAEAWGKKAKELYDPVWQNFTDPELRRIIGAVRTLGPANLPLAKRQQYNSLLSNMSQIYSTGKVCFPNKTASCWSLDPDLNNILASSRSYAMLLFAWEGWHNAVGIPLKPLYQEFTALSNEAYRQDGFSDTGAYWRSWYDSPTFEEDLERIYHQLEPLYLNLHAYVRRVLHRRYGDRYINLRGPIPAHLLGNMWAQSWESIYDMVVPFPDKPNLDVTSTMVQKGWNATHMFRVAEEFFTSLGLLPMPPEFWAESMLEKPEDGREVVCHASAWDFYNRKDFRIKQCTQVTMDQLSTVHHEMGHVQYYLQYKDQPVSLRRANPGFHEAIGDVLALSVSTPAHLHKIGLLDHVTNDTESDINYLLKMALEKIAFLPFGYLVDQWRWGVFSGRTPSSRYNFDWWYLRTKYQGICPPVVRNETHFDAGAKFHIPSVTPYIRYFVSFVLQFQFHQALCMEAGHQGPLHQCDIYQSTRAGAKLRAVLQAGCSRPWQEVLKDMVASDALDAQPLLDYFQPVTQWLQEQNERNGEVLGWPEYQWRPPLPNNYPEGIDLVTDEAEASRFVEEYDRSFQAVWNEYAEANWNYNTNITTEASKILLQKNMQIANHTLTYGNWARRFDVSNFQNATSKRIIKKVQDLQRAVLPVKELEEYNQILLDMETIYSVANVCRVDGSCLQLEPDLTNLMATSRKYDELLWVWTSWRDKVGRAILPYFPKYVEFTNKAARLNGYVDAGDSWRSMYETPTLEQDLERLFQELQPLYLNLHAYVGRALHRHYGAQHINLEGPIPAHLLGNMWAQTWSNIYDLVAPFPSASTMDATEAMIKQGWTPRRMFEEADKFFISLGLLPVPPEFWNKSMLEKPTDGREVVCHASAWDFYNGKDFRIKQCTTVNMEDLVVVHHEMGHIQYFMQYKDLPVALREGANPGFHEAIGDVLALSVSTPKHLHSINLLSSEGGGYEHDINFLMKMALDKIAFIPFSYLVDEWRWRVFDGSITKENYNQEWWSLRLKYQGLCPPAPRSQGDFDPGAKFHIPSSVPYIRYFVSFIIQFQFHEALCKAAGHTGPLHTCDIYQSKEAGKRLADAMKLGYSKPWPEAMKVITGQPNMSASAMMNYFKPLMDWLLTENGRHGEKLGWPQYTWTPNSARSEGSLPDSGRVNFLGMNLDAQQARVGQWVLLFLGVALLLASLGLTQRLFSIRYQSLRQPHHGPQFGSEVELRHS
Description: Table 2 Summary of ACE inhibitory peptides having similar structure with purified peptides. | column: IC50 (μM) || Table 3 Inhibition pattern of ACE inhibitory peptides derived from marine products. | column: Inhibition Pattern; IC50 (μM)

IC50 of ACE inhibitory activity (enzyme activity on HHL), peptide purified from POMPH [1]: 109 µM | ACE inhibitory activity (%) of fraction F62 at a protein concentration of 0.54 mg/mL [2]: 84.7%
Molecule: Gly-Trp-Ala, purified from pearl oyster meat protein hydrolysate (fraction F62) (peptide)

IC50 of ACE inhibitory activity (enzyme activity on HHL), synthesized peptide [1]: 98.9 µM
Molecule: Gly-Trp-Ala, synthesized (peptide)

Molecule: HLPLP
IC50 (ACE; ref [28]): 41 µM

Molecule: HLPLPLL
IC50 (ACE; ref [28]): 34.4 µM

Molecule: IWHHT
IC50 (ACE; ref [28]): 5.1 µM

Molecule: VELYP
IC50 (ACE; ref [34]): 5.22 µM | Inhibition Pattern (ACE; ref [34]): Non-competitive

Molecule: VVYPWTTQRF
IC50 (ACE; ref [35]): 66 µM | Inhibition Pattern (ACE; ref [35]): Non-competitive

Molecule: VWDPPKFD
IC50 (ACE; ref [31]): 9.1 µM | Inhibition Pattern (ACE; ref [31]): Non-competitive

Molecule: VWYHT
IC50 (ACE; ref [28]): 28.3 µM

IC50 of ACE inhibitory activity (enzyme activity on HHL), synthesized peptide [1]: 452 µM
Molecule: HLHT [His-Leu-His-Thr, synthesized]

IC50 of ACE inhibitory activity (enzyme activity on HHL), peptide purified from POMPH [1]: 458 µM | ACE inhibitory activity (%) of fraction F51 at a protein concentration of 0.54 mg/mL [2]: 64.7%
Molecule: HLHT [His-Leu-His-Thr, purified from pearl oyster meat protein hydrolysate (fraction F51)]
